{"source": "paper PMC4081127", "proteins": {"B1": {"name": "Ta1305 (mevalonate-3-kinase) (Thermoplasma acidophilum DSM 1728) (protein)", "chain": "MTYRSIGSTAYPTIGVVLLGGIANPVTRTPLHTSAGIAYSDSCGSIRSETRIYADEATHIYFNGTESTDDNRSVRRVLDRYSSVFEEAFGTKTVSYSSQNFGILSGSSDAGAASIGAAILGLKPDLDPHDVENDLRAVSESAGRSLFGGLTITWSDGFHAYTEKILDPEAFSGYSIVAFAFDYQRNPSDVIHQNIVRSDLYPARKKHADEHAHMIKEYAKTNDIKGIFDLAQEDTEEYHSILRGVGVNVIRENMQKLISYLKLIRKDYWNAYIVTGGSNVYVAVESENADRLFSIENTFGSKKKMLRIVGGAWHRRPE"}}, "substrate": "C[C@@](O)(CCO)CC(=O)O", "test": "purified protein", "details": "pH 8.5; 55.0 °C", "data": [{"protein": "B1", "values": [{"measurement": "Km", "result": "97 ± 6", "unit": "µM"}]}]}
